# Assay results reported in PMC9550759.
# Biological target: high-affinity binding sites and low-affinity sites for VEGF165 on the SK-MEL-28 cell line (human (endogenous in SK-MEL-28))
# Assay: radioligand binding; radio-receptor assay with [125I]-labeled VEGF165 on SK-MEL-28 cells; two classes of sites; data not shown
substance,measurement,value
Recombinant Human VEGF165 (from UniProt P15692-4 1-191) (ligand),"KD, high-affinity sites",0.13 nM
same,"KD, low-affinity sites",4.1 nM
